# From patent publication US20050089961A1 (NEUROMED PHARMACEUTICALS, published 2005)
# Target: rat α1B+β1b calcium channel (N-type calcium channel) (rat, UniProt Q02294 1-2336; P54283 1-597)
# Assay: cell-based or functional assay
# Sequence of rat α1B+β1b calcium channel (N-type calcium channel) (Q02294 whole entry, chain 1 of 2): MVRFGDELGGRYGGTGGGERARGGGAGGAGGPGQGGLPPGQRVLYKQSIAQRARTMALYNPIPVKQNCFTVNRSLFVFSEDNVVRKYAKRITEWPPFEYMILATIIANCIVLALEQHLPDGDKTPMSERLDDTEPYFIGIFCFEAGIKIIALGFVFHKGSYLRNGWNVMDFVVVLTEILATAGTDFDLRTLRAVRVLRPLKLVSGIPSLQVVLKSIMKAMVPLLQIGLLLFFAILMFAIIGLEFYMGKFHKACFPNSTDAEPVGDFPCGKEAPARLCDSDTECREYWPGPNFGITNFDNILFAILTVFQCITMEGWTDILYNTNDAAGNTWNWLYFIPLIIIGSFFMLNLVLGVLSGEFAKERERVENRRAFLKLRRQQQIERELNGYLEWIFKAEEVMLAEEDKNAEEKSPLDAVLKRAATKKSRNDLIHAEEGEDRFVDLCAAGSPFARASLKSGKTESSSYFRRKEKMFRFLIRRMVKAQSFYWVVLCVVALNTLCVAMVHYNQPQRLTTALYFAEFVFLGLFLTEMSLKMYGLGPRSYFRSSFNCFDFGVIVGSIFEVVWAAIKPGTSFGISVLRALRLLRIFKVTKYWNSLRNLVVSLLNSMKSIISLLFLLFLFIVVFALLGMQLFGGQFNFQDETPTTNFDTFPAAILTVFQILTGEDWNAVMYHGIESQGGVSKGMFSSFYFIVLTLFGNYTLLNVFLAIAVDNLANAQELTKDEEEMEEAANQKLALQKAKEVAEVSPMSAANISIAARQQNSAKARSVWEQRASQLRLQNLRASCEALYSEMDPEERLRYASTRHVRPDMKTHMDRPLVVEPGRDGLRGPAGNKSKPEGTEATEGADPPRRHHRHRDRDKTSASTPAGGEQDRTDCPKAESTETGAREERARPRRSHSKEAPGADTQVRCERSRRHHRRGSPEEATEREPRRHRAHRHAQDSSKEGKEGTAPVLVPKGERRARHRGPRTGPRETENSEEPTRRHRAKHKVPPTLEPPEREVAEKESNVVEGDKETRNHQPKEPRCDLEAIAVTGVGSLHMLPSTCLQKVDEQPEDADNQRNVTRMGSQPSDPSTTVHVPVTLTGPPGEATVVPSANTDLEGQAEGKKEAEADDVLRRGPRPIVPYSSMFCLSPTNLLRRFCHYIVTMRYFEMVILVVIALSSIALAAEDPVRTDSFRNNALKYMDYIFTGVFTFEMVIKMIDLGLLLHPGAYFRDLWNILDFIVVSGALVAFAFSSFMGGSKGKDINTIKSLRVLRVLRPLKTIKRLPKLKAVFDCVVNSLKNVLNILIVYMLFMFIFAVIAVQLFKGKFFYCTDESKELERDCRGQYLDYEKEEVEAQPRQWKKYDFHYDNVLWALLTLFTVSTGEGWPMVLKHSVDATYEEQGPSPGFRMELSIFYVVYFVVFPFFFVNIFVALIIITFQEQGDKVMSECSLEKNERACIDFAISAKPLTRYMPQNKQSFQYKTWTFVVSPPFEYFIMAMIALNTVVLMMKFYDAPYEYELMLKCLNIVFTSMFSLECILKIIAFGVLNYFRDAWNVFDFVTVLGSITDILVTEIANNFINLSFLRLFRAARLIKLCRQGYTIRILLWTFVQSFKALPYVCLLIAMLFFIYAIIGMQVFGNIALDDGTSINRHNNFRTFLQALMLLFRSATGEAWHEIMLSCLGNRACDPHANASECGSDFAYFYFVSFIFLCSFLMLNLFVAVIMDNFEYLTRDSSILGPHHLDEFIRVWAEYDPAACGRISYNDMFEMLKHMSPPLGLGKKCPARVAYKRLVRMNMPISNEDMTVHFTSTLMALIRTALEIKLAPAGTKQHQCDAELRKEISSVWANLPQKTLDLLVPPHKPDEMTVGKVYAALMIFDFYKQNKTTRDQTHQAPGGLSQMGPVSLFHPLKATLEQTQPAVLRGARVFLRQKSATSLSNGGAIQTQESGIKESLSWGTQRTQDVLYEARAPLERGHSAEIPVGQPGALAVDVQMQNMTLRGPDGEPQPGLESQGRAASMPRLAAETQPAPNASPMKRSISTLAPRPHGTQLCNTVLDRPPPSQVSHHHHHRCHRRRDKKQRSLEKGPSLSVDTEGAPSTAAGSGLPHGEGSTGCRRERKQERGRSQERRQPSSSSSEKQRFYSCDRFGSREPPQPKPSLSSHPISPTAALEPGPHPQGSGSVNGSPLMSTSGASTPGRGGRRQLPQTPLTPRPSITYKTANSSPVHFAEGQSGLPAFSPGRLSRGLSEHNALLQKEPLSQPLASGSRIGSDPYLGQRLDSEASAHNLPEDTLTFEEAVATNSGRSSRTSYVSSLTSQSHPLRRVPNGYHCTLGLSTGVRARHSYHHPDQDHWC
# Sequence of rat α1B+β1b calcium channel (N-type calcium channel) (P54283 whole entry, chain 2 of 2): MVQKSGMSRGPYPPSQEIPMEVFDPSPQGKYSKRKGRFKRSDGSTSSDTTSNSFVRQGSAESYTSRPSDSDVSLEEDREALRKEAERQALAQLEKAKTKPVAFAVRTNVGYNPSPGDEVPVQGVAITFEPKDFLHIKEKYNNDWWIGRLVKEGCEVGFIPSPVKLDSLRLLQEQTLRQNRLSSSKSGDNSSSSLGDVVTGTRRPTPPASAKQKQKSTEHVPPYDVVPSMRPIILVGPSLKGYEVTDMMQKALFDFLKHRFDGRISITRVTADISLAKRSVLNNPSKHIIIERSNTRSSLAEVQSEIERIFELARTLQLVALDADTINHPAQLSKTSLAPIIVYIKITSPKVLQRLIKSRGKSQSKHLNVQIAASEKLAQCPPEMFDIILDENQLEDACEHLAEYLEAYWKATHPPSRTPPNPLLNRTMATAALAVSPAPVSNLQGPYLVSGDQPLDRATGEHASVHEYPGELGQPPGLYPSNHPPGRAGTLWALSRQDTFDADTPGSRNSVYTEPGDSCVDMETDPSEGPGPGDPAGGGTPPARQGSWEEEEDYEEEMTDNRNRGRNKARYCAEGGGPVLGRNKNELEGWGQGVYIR
binder,measurement,value
full-length chicken α2δ-1 calcium channel subunit (other) HSSEGPFPSPTTIKSWVDKMQEDLITLARTASGVEQLAAIYLKNKDLYTVEANNPRQLVEIAARDIEKLLSNRSKALVRLAKEAEKYQASHQWRDEFGNNDIIYYNAKDDQNDPEKNDTESGSQRIRPVFEEDPVFRRQTSYQHAAVHIPTDIYEGSTIVLNELNWTAALDDVFKRNREEDPTLLWQVFGSATGLARYYPASPWVDNSRTPNKIDLYDVRRRPWYIQGAASPKDMLILVDASGSVSGLTLKLIRTSVIEMLETLSDDDFVNVVSFNNNAQNVSCFNHLVQANVRNKKKLKEAVDKISAKGITDYKKGFSYAFEQLLNHSVSRANCNKIIMLFTDGGEERAQEIFHKYNEDKKVRVFTFSVGQHNYDKGPIQWMACENKGYYYEIPSIGAIRINTQEYLDVLGRPMVLAGEKAKQVQWTNVYLDALELGLVITGTLPVFNLTKEQNGKINQLILGVMGVDVSLEDIKKLTPRFTLCPNGYYFAIDPNGYVLLHPNLQPKNPKSQEPVTLDFLDAELENDIKVEIRKKMIDGESGEKTFETLVKSQDERYIDKGNRTYTWTAVNGTDYSLALVLPSYSFYYIKAKIEEPITQARLEIKKDSETLKIDHFDEAGYTFIAPREYCTDVKKSENNTEFLLNFNEFIDRNTPSSPSCNTDMVIRVLLDAGFTNELAQNYWSKLYLDGVVAQFVVTDGGITRVFPKRAGEDWLENAETYEVSFYKRSLDNDNYIFTAPYYNKSGANSYESGIMVSKAVEITINGKLLKPAVVGIKIDAMKWMENFTTTTIKSLCNSEICGCEKNSMHVDCVILDDGGFLLMSNRDEYTHQIGRFFGEIDPGLMRNLINMSLYAFNKSYDYQSVCDPEEEPKQGAGLRSAYVPTIADILQLGWWASAAAWSILQQLFLSLTFPRFLEAADMEDDDFSTALPKTSCITEQTQYFFENDDKSFIGIVDCINCSRLYHAEKISNTNLVFIISDSQLLCRSCDPKPLMQAEKPDEGPNPCEMVKQPRYRKGPDVCFDEAKQEDSADCGGASGLSPSLWSMVGIQLVLLWLLSGSRHYQL,"current density (Ipeak/cell capacitance), whole-cell patch clamp, fold increase on coexpression",~10 fold
